In patent US11965039B2, “Compstatin analogues and their medical uses” (priority 2018, dated 2024):
Positions of bridges follow the written chain, without caps; N, C: chain ends. Non-standard residues stand in square brackets, D forms with d. Trp(1-Me) = Cn1cc(C[C@H](N)C(=O)O)c2ccccc21; 1Nal = N[C@@H](Cc1cccc2ccccc12)C(=O)O; 2Nal = N[C@@H](Cc1ccc2ccccc2c1)C(=O)O

B1: Compound 59 (peptide)
peptide: Ac-EGSAYCI[Trp(1-Me)]QDWGEHRCTE-NH2
modifications: disulfide 6-16
SMILES: CC[C@H](C)[C@@H]1NC(=O)[C@@H](NC(=O)[C@H](Cc2ccc(O)cc2)NC(=O)[C@H](C)NC(=O)[C@H](CO)NC(=O)CNC(=O)[C@H](CCC(=O)O)NC(C)=O)CSSC[C@@H](C(=O)N[C@H](C(=O)N[C@@H](CCC(=O)O)C(N)=O)[C@@H](C)O)NC(=O)[C@H](CCCNC(=N)N)NC(=O)[C@H](Cc2c[nH]cn2)NC(=O)[C@H](CCC(=O)O)NC(=O)CNC(=O)[C@H](Cc2c[nH]c3ccccc23)NC(=O)[C@H](CC(=O)O)NC(=O)[C@H](CCC(N)=O)NC(=O)[C@H](Cc2cn(C)c3ccccc23)NC1=O
B2: Compound 60 (peptide)
peptide: Ac-EGSAFCI[2Nal]QDWGEHRCTE-NH2
modifications: disulfide 6-16
SMILES: CC[C@H](C)[C@@H]1NC(=O)[C@@H](NC(=O)[C@H](Cc2ccccc2)NC(=O)[C@H](C)NC(=O)[C@H](CO)NC(=O)CNC(=O)[C@H](CCC(=O)O)NC(C)=O)CSSC[C@@H](C(=O)N[C@H](C(=O)N[C@@H](CCC(=O)O)C(N)=O)[C@@H](C)O)NC(=O)[C@H](CCCNC(=N)N)NC(=O)[C@H](Cc2c[nH]cn2)NC(=O)[C@H](CCC(=O)O)NC(=O)CNC(=O)[C@H](Cc2c[nH]c3ccccc23)NC(=O)[C@H](CC(=O)O)NC(=O)[C@H](CCC(N)=O)NC(=O)[C@H](Cc2ccc3ccccc3c2)NC1=O
B3: Compound 64 (peptide)
peptide: Ac-FCI[2Nal]QDWGEHRCTGAES-NH2
modifications: disulfide 2-12
SMILES: CC[C@H](C)[C@@H]1NC(=O)[C@@H](NC(=O)[C@H](Cc2ccccc2)NC(C)=O)CSSC[C@@H](C(=O)N[C@H](C(=O)NCC(=O)N[C@@H](C)C(=O)N[C@@H](CCC(=O)O)C(=O)N[C@@H](CO)C(N)=O)[C@@H](C)O)NC(=O)[C@H](CCCNC(=N)N)NC(=O)[C@H](Cc2c[nH]cn2)NC(=O)[C@H](CCC(=O)O)NC(=O)CNC(=O)[C@H](Cc2c[nH]c3ccccc23)NC(=O)[C@H](CC(=O)O)NC(=O)[C@H](CCC(N)=O)NC(=O)[C@H](Cc2ccc3ccccc3c2)NC1=O
B4: Compound 57 (peptide)
peptide: Ac-EGSAFCI[Trp(1-Me)]QDWGEHRCTE-NH2
modifications: disulfide 6-16
SMILES: CC[C@H](C)[C@@H]1NC(=O)[C@@H](NC(=O)[C@H](Cc2ccccc2)NC(=O)[C@H](C)NC(=O)[C@H](CO)NC(=O)CNC(=O)[C@H](CCC(=O)O)NC(C)=O)CSSC[C@@H](C(=O)N[C@H](C(=O)N[C@@H](CCC(=O)O)C(N)=O)[C@@H](C)O)NC(=O)[C@H](CCCNC(=N)N)NC(=O)[C@H](Cc2c[nH]cn2)NC(=O)[C@H](CCC(=O)O)NC(=O)CNC(=O)[C@H](Cc2c[nH]c3ccccc23)NC(=O)[C@H](CC(=O)O)NC(=O)[C@H](CCC(N)=O)NC(=O)[C@H](Cc2cn(C)c3ccccc23)NC1=O
B5: Compound 66 (peptide)
peptide: Ac-YCIWQDWGEHRCTGAES-NH2
modifications: disulfide 2-12
SMILES: CC[C@H](C)[C@@H]1NC(=O)[C@@H](NC(=O)[C@H](Cc2ccc(O)cc2)NC(C)=O)CSSC[C@@H](C(=O)N[C@H](C(=O)NCC(=O)N[C@@H](C)C(=O)N[C@@H](CCC(=O)O)C(=O)N[C@@H](CO)C(N)=O)[C@@H](C)O)NC(=O)[C@H](CCCNC(=N)N)NC(=O)[C@H](Cc2c[nH]cn2)NC(=O)[C@H](CCC(=O)O)NC(=O)CNC(=O)[C@H](Cc2c[nH]c3ccccc23)NC(=O)[C@H](CC(=O)O)NC(=O)[C@H](CCC(N)=O)NC(=O)[C@H](Cc2c[nH]c3ccccc23)NC1=O
B6: Compound 58 (peptide)
peptide: Ac-EGSAFCI[Trp(1-Me)]QDWGEHRCEGE-NH2
modifications: disulfide 6-16
SMILES: CC[C@H](C)[C@@H]1NC(=O)[C@@H](NC(=O)[C@H](Cc2ccccc2)NC(=O)[C@H](C)NC(=O)[C@H](CO)NC(=O)CNC(=O)[C@H](CCC(=O)O)NC(C)=O)CSSC[C@@H](C(=O)N[C@@H](CCC(=O)O)C(=O)NCC(=O)N[C@@H](CCC(=O)O)C(N)=O)NC(=O)[C@H](CCCNC(=N)N)NC(=O)[C@H](Cc2c[nH]cn2)NC(=O)[C@H](CCC(=O)O)NC(=O)CNC(=O)[C@H](Cc2c[nH]c3ccccc23)NC(=O)[C@H](CC(=O)O)NC(=O)[C@H](CCC(N)=O)NC(=O)[C@H](Cc2cn(C)c3ccccc23)NC1=O
B7: Compound 55 (peptide)
peptide: Ac-EGSAICIWQDWGEHRCTE-NH2
modifications: disulfide 6-16
SMILES: CC[C@H](C)[C@H](NC(=O)[C@H](C)NC(=O)[C@H](CO)NC(=O)CNC(=O)[C@H](CCC(=O)O)NC(C)=O)C(=O)N[C@H]1CSSC[C@@H](C(=O)N[C@H](C(=O)N[C@@H](CCC(=O)O)C(N)=O)[C@@H](C)O)NC(=O)[C@H](CCCNC(=N)N)NC(=O)[C@H](Cc2c[nH]cn2)NC(=O)[C@H](CCC(=O)O)NC(=O)CNC(=O)[C@H](Cc2c[nH]c3ccccc23)NC(=O)[C@H](CC(=O)O)NC(=O)[C@H](CCC(N)=O)NC(=O)[C@H](Cc2c[nH]c3ccccc23)NC(=O)[C@H]([C@@H](C)CC)NC1=O
B8: Compound 65 (peptide)
peptide: Ac-YCI[2Nal]QDWGEHRCTGAES-NH2
modifications: disulfide 2-12
SMILES: CC[C@H](C)[C@@H]1NC(=O)[C@@H](NC(=O)[C@H](Cc2ccc(O)cc2)NC(C)=O)CSSC[C@@H](C(=O)N[C@H](C(=O)NCC(=O)N[C@@H](C)C(=O)N[C@@H](CCC(=O)O)C(=O)N[C@@H](CO)C(N)=O)[C@@H](C)O)NC(=O)[C@H](CCCNC(=N)N)NC(=O)[C@H](Cc2c[nH]cn2)NC(=O)[C@H](CCC(=O)O)NC(=O)CNC(=O)[C@H](Cc2c[nH]c3ccccc23)NC(=O)[C@H](CC(=O)O)NC(=O)[C@H](CCC(N)=O)NC(=O)[C@H](Cc2ccc3ccccc3c2)NC1=O
B9: Compound 47 (peptide)
peptide: Ac-ICIWQDWGAHRCTGAES-NH2
modifications: disulfide 2-12
SMILES: CC[C@H](C)[C@H](NC(C)=O)C(=O)N[C@H]1CSSC[C@@H](C(=O)N[C@H](C(=O)NCC(=O)N[C@@H](C)C(=O)N[C@@H](CCC(=O)O)C(=O)N[C@@H](CO)C(N)=O)[C@@H](C)O)NC(=O)[C@H](CCCNC(=N)N)NC(=O)[C@H](Cc2c[nH]cn2)NC(=O)[C@H](C)NC(=O)CNC(=O)[C@H](Cc2c[nH]c3ccccc23)NC(=O)[C@H](CC(=O)O)NC(=O)[C@H](CCC(N)=O)NC(=O)[C@H](Cc2c[nH]c3ccccc23)NC(=O)[C@H]([C@@H](C)CC)NC1=O
B10: Compound 56 (peptide)
peptide: Ac-EGSAFCI[1Nal]QDWGEHRCTE-NH2
modifications: disulfide 6-16
SMILES: CC[C@H](C)[C@@H]1NC(=O)[C@@H](NC(=O)[C@H](Cc2ccccc2)NC(=O)[C@H](C)NC(=O)[C@H](CO)NC(=O)CNC(=O)[C@H](CCC(=O)O)NC(C)=O)CSSC[C@@H](C(=O)N[C@H](C(=O)N[C@@H](CCC(=O)O)C(N)=O)[C@@H](C)O)NC(=O)[C@H](CCCNC(=N)N)NC(=O)[C@H](Cc2c[nH]cn2)NC(=O)[C@H](CCC(=O)O)NC(=O)CNC(=O)[C@H](Cc2c[nH]c3ccccc23)NC(=O)[C@H](CC(=O)O)NC(=O)[C@H](CCC(N)=O)NC(=O)[C@H](Cc2cccc3ccccc23)NC1=O
B11: Compound 68 (peptide)
peptide: Ac-YCI[Trp(1-Me)]QDWGEHRCTEAGS-NH2
modifications: disulfide 2-12
SMILES: CC[C@H](C)[C@@H]1NC(=O)[C@@H](NC(=O)[C@H](Cc2ccc(O)cc2)NC(C)=O)CSSC[C@@H](C(=O)N[C@H](C(=O)N[C@@H](CCC(=O)O)C(=O)N[C@@H](C)C(=O)NCC(=O)N[C@@H](CO)C(N)=O)[C@@H](C)O)NC(=O)[C@H](CCCNC(=N)N)NC(=O)[C@H](Cc2c[nH]cn2)NC(=O)[C@H](CCC(=O)O)NC(=O)CNC(=O)[C@H](Cc2c[nH]c3ccccc23)NC(=O)[C@H](CC(=O)O)NC(=O)[C@H](CCC(N)=O)NC(=O)[C@H](Cc2cn(C)c3ccccc23)NC1=O
B12: Compound 51 (peptide)
peptide: Ac-ICI[Trp(1-Me)]QDWGEHRCTGAES-NH2
modifications: disulfide 2-12
SMILES: CC[C@H](C)[C@H](NC(C)=O)C(=O)N[C@H]1CSSC[C@@H](C(=O)N[C@H](C(=O)NCC(=O)N[C@@H](C)C(=O)N[C@@H](CCC(=O)O)C(=O)N[C@@H](CO)C(N)=O)[C@@H](C)O)NC(=O)[C@H](CCCNC(=N)N)NC(=O)[C@H](Cc2c[nH]cn2)NC(=O)[C@H](CCC(=O)O)NC(=O)CNC(=O)[C@H](Cc2c[nH]c3ccccc23)NC(=O)[C@H](CC(=O)O)NC(=O)[C@H](CCC(N)=O)NC(=O)[C@H](Cc2cn(C)c3ccccc23)NC(=O)[C@H]([C@@H](C)CC)NC1=O
B13: Compound 62 (peptide)
peptide: Ac-YCI[Trp(1-Me)]QDWGEHRCTGAES-NH2
modifications: disulfide 2-12
SMILES: CC[C@H](C)[C@@H]1NC(=O)[C@@H](NC(=O)[C@H](Cc2ccc(O)cc2)NC(C)=O)CSSC[C@@H](C(=O)N[C@H](C(=O)NCC(=O)N[C@@H](C)C(=O)N[C@@H](CCC(=O)O)C(=O)N[C@@H](CO)C(N)=O)[C@@H](C)O)NC(=O)[C@H](CCCNC(=N)N)NC(=O)[C@H](Cc2c[nH]cn2)NC(=O)[C@H](CCC(=O)O)NC(=O)CNC(=O)[C@H](Cc2c[nH]c3ccccc23)NC(=O)[C@H](CC(=O)O)NC(=O)[C@H](CCC(N)=O)NC(=O)[C@H](Cc2cn(C)c3ccccc23)NC1=O
B14: Compound 52 (peptide)
peptide: Ac-ICI[2Nal]QDWGEHRCTGAES-NH2
modifications: disulfide 2-12
SMILES: CC[C@H](C)[C@H](NC(C)=O)C(=O)N[C@H]1CSSC[C@@H](C(=O)N[C@H](C(=O)NCC(=O)N[C@@H](C)C(=O)N[C@@H](CCC(=O)O)C(=O)N[C@@H](CO)C(N)=O)[C@@H](C)O)NC(=O)[C@H](CCCNC(=N)N)NC(=O)[C@H](Cc2c[nH]cn2)NC(=O)[C@H](CCC(=O)O)NC(=O)CNC(=O)[C@H](Cc2c[nH]c3ccccc23)NC(=O)[C@H](CC(=O)O)NC(=O)[C@H](CCC(N)=O)NC(=O)[C@H](Cc2ccc3ccccc3c2)NC(=O)[C@H]([C@@H](C)CC)NC1=O

Target: Human C3 (Complement tech cat #A113c) (human, UniProt P01024 23-1663)
Test: cell-based or functional assay

Human C3 (Complement tech cat #A113c), sequence (P01024 23-1663 limits assumed): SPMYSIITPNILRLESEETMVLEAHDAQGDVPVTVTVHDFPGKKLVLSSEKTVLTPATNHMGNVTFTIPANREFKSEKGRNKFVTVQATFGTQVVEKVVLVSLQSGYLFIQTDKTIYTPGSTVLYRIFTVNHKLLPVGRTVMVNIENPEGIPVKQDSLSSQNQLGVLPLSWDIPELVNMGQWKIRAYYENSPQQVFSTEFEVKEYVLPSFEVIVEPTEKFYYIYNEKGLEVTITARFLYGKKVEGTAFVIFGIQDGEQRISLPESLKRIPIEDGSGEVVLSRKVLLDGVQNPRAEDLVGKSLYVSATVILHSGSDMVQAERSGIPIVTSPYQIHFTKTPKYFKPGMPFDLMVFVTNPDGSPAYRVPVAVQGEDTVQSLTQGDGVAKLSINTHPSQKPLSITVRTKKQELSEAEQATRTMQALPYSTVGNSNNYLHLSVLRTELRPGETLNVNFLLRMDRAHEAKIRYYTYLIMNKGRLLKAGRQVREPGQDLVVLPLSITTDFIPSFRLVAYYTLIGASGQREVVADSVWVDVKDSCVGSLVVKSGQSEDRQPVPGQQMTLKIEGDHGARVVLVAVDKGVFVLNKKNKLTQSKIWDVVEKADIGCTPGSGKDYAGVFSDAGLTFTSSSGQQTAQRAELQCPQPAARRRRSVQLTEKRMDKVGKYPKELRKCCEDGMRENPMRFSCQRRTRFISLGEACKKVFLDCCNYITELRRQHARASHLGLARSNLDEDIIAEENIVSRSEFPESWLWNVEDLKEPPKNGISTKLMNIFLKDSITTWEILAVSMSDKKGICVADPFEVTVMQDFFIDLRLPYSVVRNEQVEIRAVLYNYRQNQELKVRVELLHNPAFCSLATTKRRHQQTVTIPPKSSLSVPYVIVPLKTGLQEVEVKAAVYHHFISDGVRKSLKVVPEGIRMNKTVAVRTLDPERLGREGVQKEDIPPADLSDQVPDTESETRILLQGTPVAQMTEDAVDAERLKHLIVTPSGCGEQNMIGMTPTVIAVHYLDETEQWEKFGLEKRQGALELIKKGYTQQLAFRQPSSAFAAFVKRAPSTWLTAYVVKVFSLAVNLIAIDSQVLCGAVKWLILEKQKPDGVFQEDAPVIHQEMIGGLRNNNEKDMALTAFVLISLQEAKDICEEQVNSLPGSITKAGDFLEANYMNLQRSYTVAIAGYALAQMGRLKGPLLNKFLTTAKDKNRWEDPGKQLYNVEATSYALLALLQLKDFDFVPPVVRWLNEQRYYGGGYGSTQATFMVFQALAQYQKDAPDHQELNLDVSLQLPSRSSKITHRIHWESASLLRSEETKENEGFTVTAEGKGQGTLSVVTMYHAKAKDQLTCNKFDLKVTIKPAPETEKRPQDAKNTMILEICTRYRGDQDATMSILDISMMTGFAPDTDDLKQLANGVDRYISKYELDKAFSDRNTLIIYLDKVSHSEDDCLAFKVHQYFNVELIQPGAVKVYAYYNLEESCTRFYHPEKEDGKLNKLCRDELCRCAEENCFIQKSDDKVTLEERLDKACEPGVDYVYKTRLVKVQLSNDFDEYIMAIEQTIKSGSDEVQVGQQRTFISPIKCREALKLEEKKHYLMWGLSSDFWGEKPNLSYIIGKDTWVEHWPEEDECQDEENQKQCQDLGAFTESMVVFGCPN

Binder | inhibition of hemolysis IC50 [nM]
B1 | < 100
B2 | < 100
B3 | < 100
B4 | < 100
B5 | < 100
B6 | < 100
B7 | < 250
B8 | < 100
B9 | < 100
B10 | < 100
B11 | < 100
B12 | < 100
B13 | < 100
B14 | < 100
